Assay results reported in patent US20140099313A1.

Assays:
[1] = target: human IL-13 wild type (human) (UniProt P35225); assay: competition, ELISA RBA: IL-13 to IL-13Rα2/Fc
[2] = target: human IL-13 wild type (human) (UniProt P35225); assay: competition, cell surface RBA: IL-13 to IL-13Rα2 on COS cells

human IL-13 wild type (human), sequence (P35225 other isoform, or with tags, fused parts or gaps limits assumed): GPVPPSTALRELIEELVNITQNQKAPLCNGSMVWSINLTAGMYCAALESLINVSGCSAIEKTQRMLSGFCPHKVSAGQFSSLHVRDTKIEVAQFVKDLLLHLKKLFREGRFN

percent inhibition at 100 nM [1]: 60%
percent inhibition at 100 nM [2]: 70%
B1: MJ2-7 (antibody, from another filing, V domains shown)
VH: EVQLQQSGAELVKPGASVKLSCTGSGFNIKDTYIHWVKQRPEQGLEWIGRIDPANDNIKYDPKFQGKATITADTSSNTAYLQLNSLTSEDTAVYYCARSEENWYDFFDYWGQGTTLTVSS
VL: DVLMTQTPLSLPVSLGDQASISCRSSQSIVHSNGNTYLEWYLQKPGQSPKLLIYKVSNRFSGVPDRFSGSGSGTDFTLKISRVEAEDLGVYYCFQGSHIPYTFGGGTKLEIK
